Assay type in all cases: cell-based, Homo sapiens
The subject of assay [1] is caspase 8 in HCT116 GFP-Trap immunoprecipitates. Put plainly: Caspase 8 activity (caspase glo 8) of GFP immunoprecipitates (beads). As to the method: 15 cm dishes were seeded with 4 million HCT116 cells and allowed to recover for 18 hr prior to transfection. Samples were then transfected for 24 hr with the GFP-tagged ER trafficked protein, cytosolic GFP, or empty vector. To harvest apoptotic and living cells for each sample, all media and washes were collected. Cells were scraped in 2 ml of cold PBS and combined with the media and washes. Samples were centrifuged to pellet cells, washed with 1 ml cold PBS, and flash frozen in liquid N2 prior to lysis.
The cell pellets were resuspended in 750 μl of 30 mM HEPES pH 7.2, 150 mM NaCl, 1% Triton X-100 with 1x Roche protease inhibitor cocktail (if used subsequently for caspase glo 8 assay) or with 5x Roche protease inhibitor cocktail (if used for immunoblotting). The cells were lysed by mechanical shearing through a 25G needle for 13–15 plunges followed by incubation on ice for 30 min. The lysate was centrifuged at 2000xg for 5 min to remove debris and then incubated with 30 μl of GFP-Trap magnetic agarose beads (Chromotek gtma-20) for 4 hr at 4°C. The beads were then washed with 750 μl of lysis buffer for 10 min at 4°C for three rounds.
For measuring caspase activity, a fifth of the beads was resuspended in 40 μl of 30 mM HEPES pH 7.2, 150 mM NaCl, 1% Triton X-100. 10 μl of the resuspended mixture was incubated with 10 ul of the caspase glo 8 luminogenic substrate (Promega #PRG8200) for 45 min at RT before measuring luminescence.

For the next assay, the system named is DR5. Put plainly: DR5 immunoprecipitation (blotted for DR5, MPZ-GFP, FADD). The settings on record: HCT116 transfected with MPZ-GFP. As to the method: IP for DR5 was performed as previously described in [Lu et al. (2014)], using anti-DR5 mAb 5C7-conjugated agarose beads gifted by David Lawrence of the Ashkenazi lab at Genentech Inc.
For assay [2], the system named is PARP / caspase 8 / caspase 3 in HCT116 cells. Put plainly: Western blot of HCT116 lysates (PARP, caspase 8 and caspase 3 cleavage, DR5 level). As to the method:
Media and cells for each sample were collected by cell scraping into cold PBS followed by a subsequent wash with 1 ml of cold PBS. The cell pellet was then resuspended in cold lysis buffer (30 mM HEPES pH 7.2, 150 mM NaCl, 1% Triton X100, 1x Roche protease inhibitor) and lysed via needle shearing on ice. Samples were centrifuged at 1000xg for 5 min, and the supernatants were mixed with sample buffer to a final concentration of 1% SDS, 62.5 mM Tris-HCl pH 6.8, 10% glycerol, 0.1% bromophenol blue, 50 mM DTT. Samples were boiled at 95°C and loaded on SDS-PAGE gels (GenScript). Samples were subsequently transferred onto nitrocellulose membranes, blocked with Odyssey buffer (Licor) for 1 hr at RT, and probed with primary antibodies diluted 1:1000 (unless otherwise specified) in Licor Odyssey buffer supplemented with 0.1% Tween 20% at 4°C overnight.
Bound primary antibodies were probed by HRP-conjugated secondary antibodies (Amersham, Piscataway, NJ, 1:10000) using enhanced chemiluminescence (SuperSignal; Thermo Scientific, Waltham, MA) detected by standard film or through the ChemiDoc XRS+ Imaging System (Bio-Rad).

For assay [3], the system named is XBP1 mRNA in HCT116 cells. The assay can be described thus: RT-PCR for Xbp1 mRNA splicing. The settings on record: HCT116, 24 hr. As to the method: Cells were grown in 6-well plates and harvested with 0.5 ml of TRIzol reagent (Life Technologies) per manufacturer's protocol to extract RNA. […] The reverse transcription product was diluted to 200 μl with 10 mM Tris-HCl pH 8.2 and used at 1:100 dilution for subsequent RT-PCR reactions. 2 μl of cDNA was added to 0.2 μM of forward and reverse primers ([…]; Hs_XBP1_Rev: [NT]), 0.2 mM of each dNTP, 0.5 units of Taq DNA polymerase (Thermo Scientific). The reaction was set at an annealing temperature of 60.5°C with an extension time of 30 s for 26 cycles.

B1: MPZ-GFP: myelin protein zero with a C-terminal monomeric EGFP, expressed from plasmid (protein)
chain: IVVYTDREVHGAVGSRVTLHCSFWSSEWVSDDISFTWRYQPEGGRDAISIFHYAKGQPYIDEVGTFKERIQWVGDPRWKDGSIVIHNLDYSDNGTFTCDVKNPPDIVGKTSQVTLYVFEKVPTRYGVVLGAVIGGVLGVVLLLLLLFYVVRYCWLRRQAALQRRLSAMEKGKLHKPGKDASKRGRQTPVLYAMLDHSRSTKAVSEKKAKGLGESRKDKK
modifications: left off: monomeric EGFP, C-terminal, kept
notes: myelin protein zero with a C-terminal monomeric EGFP, expressed from plasmid
On to B1, for which the “average fold change in caspase 8 activity relative to empty” value in assay [1] (GFP IP beads, run 2019-02-05) turned out to be 2.174 fold; in assay [1] (GFP beads, sheet 2018-02-11 (compiled as Rep 2019-02-11)), 3.5 fold. Also, the “average fold change (relative to empty average)” value in assay [1] (GFP beads, dilution 0.0666667, average of rep1-rep3) is 3.5. For the same molecule, in assay [1] (GFP beads, n=3), the “fold change in caspase 8 activity, Mean ± SEM (unpaired t test)” value was 2.621 ± 0.4397, n=3 fold. Further, the “fold change in caspase 8 activity, average of averages” value in assay [1] (GFP beads, three runs compiled) is reported as 2.621 fold. Further, in assay [1] (MPZ-GFP immunoprecipitates, 24 hr post-transfection), the “caspase 8 activity of immunoprecipitates compared to empty beads” value is listed as 2–3 fold. Besides, in the assay with DR5, the DR5 pull-down result is “enriched for FADD and MPZ-GFP”. Moreover, the “DR5 int (bg subtracted)” value in assay [2] (DR5 input levels, Rep 2) stood at 739.08; in assay [2] (DR5 input levels, Rep 3) it was 357.944. In addition, the “normalized DR5 to GAPDH” value stood at 0.2156 in assay [2] (DR5 input levels, Rep 2) and 0.2423 in assay [2] (DR5 input levels, Rep 3). For the same molecule, the “DR5 levels normalized to GAPDH, average” value in assay [2] (DR5 input levels, average of rep 2 and rep 3, Stdev in row below) is 0.229. The “caspase 8 and caspase 3 cleavage, high expression” value in assay [2] (HCT116, 24 hr) was “cleavage of caspase 8and its downstream target caspase 3”. Also, the “caspase 8 and 3 cleavage/activity, low expression level” value in assay [2] (low levels of MPZ-GFP expression, proper plasma membrane localization) is given as “did not induce caspase 8 or 3 activity”. Further, the “XBP1 mRNA splicing” value in assay [3] was “initiated a few hours post-transfection with MPZ-GFP and later attenuated”.

These data come from publication PMC7041945, “Misfolded proteins bind and activate death receptor 5 to trigger apoptosis during unresolved endoplasmic reticulum stress” (eLife, 2020).
